Test results from publication PMC5794981.

Target: aflibercept (Eylea) (human)
Assay: SEC; Superdex 200 Increase 10/300 GL, aflibercept diluted in PBS to 8 mg/ml, 77 ul injected, 25 °C; samples stored 0, 7 or 28 days

aflibercept (Eylea) (Fc fusion), sequence (chain): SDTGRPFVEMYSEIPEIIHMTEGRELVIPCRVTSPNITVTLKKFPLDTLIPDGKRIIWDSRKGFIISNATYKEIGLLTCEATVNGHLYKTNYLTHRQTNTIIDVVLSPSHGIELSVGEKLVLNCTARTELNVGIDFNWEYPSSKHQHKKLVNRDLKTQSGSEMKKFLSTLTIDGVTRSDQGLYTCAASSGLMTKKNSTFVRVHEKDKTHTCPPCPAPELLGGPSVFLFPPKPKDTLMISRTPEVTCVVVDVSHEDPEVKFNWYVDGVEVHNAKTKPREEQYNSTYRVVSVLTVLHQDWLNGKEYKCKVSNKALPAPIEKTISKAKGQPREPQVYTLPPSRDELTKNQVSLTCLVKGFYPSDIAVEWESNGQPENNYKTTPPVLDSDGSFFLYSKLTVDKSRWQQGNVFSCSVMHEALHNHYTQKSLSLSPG

- stoichiometry N: 2
Substance: aflibercept (Eylea) (Fc fusion)
